Source: patent US10407638B2, “Production of alpha-olefins” (TOTAL RAFFINAGE CHIMIE, priority 2015, dated 2019)

B1: Sm46-del29: truncated variant of Sm46 with the N-terminal 29 amino acids deleted, SEQ ID NO:13 (protein)
chain: AKKLPKVKGLDNTVDIIKGGYTYVPGKLEEFDSKAFEVRALGGKKIAVMSGKEAAEIFYDNEKMERQGTLPKRIVNTLFGKGAIHTTAGKKHVDRKALFMSLMTDENLNYLRELTRNYWFMNTERMQSMDKVNVYNESIYMLTKIGFRWAGIIQTPEEAEQNAKDMDTMINSFVSLGSAYKGYKKAKKARKRVEDFLEKQIIDVRKGKLHPEEGTALYEFAHWEDLNDNPMDSHLCAVDLMNVVRPLAAINRFISYGVKVLIEFDQEKEKLRLENNEDYAYKFAQEVRRIFPFVPYLPGRAAVDLEYDGYKIPAGMMTALDVYGTTHDEDLWENPDQFNPNRFDNWDGSPFDLIPQGGGDFYTNHRCAGEWITVIIMEETMKYFANKIEFDVPSQDLSVKLDKLPGNVTSGTIISNVRPRVARK
modifications: Sm46-del29
B2: Aa162: decarboxylase (olefin-producing enzyme) from Alicyclobacillus acidocaldarius, SEQ ID NO:6 (protein, listed as Alicyclobacillus acidocaldarius)
chain: MNQCIPRDRTFDSSLALIKEGYLFIKNRVDQYQSDIFEARLLLENVVCMHGAEAAKLFYNTELFQRQGALPKRVQKTLFGENAIQTLDGTAHLHRKQLFLSLLTPDQEKSLATLATTQWRECAKVWENADRVVLFEEAKRMLCRIACQWTGVPLDESEVSKRADDFGAMVDAFGAVGPRHWKGRRARARAEAWLRQMIDEIRIGLRSVDEHTPLHVVAFWRDVNGNLLDAQMVAIELINLLRPIVAISTFITFSALALHEHPTWRDRLKARNEADIEMFVQEVRRYYPFAPFLGARVKKDFVWRGYEFKRGTLVLLDVYGTHHDARLWDSPNEFRPERFMRKTVGPFDLIPQGGGDSHTGHRCPGEGATIEIMKASVDFLVNQIDFEVPAQDLSYRLDVMPTLPKSGFVLTHVHRKFIASPTIATPNGSEALPSEV
B3: Sm46: olefin-producing enzyme from Staphilococcus massiliensis, SEQ ID NO:8 (protein, listed as Staphylococcus massiliensis)
chain: MFVDSILVLRLNLLKTGIQLEMKNGGIKVAKKLPKVKGLDNTVDIIKGGYTYVPGKLEEFDSKAFEVRALGGKKIAVMSGKEAAEIFYDNEKMERQGTLPKRIVNTLFGKGAIHTTAGKKHVDRKALFMSLMTDENLNYLRELTRNYWFMNTERMQSMDKVNVYNESIYMLTKIGFRWAGIIQTPEEAEQNAKDMDTMINSFVSLGSAYKGYKKAKKARKRVEDFLEKQIIDVRKGKLHPEEGTALYEFAHWEDLNDNPMDSHLCAVDLMNVVRPLAAINRFISYGVKVLIEFDQEKEKLRLENNEDYAYKFAQEVRRIFPFVPYLPGRAAVDLEYDGYKIPAGMMTALDVYGTTHDEDLWENPDQFNPNRFDNWDGSPFDLIPQGGGDFYTNHRCAGEWITVIIMEETMKYFANKIEFDVPSQDLSVKLDKLPGNVTSGTIISNVRPRVARK
B4: OleTJE: P450 decarboxylase from Jeotgalicoccus sp. ATCC 8456, decarboxylates C12 to C20 free fatty acids to α-olefins (protein, listed as Jeotgalicoccus sp.)
chain: MATLKRDKGLDNTLKVLKQGYLYTTNQRNRLNTSVFQTKALGGKPFVVVTGKEGAEMFYNNDVVQREGMLPKRIVNTLFGKGAIHTVDGKKHVDRKALFMSLMTEGNLNYVRELTRTLWHANTQRMESMDEVNIYRESIVLLTKVGTRWAGVQAPPEDIERIATDMDIMIDSFRALGGAFKGYKASKEARRRVEDWLEEQIIETRKGNIHPPEGTALYEFAHWEDYLGNPMDSRTCAIDLMNTFRPLIAINRFVSFGLHAMNENPITREKIKSEPDYAYKFAQEVRRYYPFVPFLPGKAKVDIDFQGVTIPAGVGLALDVYGTTHDESLWDDPNEFRPERFETWDGSPFDLIPQGGGDYWTNHRCAGEWITVIIMEETMKYFAEKITYDVPEQDLEVDLNSIPGYVKSGFVIKNVREVVDRT
B5: Bs168: P450BSβ fatty acid hydroxylase from Bacillus subtilis subsp. subtilis str. 168, SEQ ID NO:4 (protein, listed as Bacillus subtilis)
chain: MNEQIPHDKSLDNSLTLLKEGYLFIKNRTERYNSDLFQARLLGKNFICMTGAEAAKVFYDTDRFQRQNALPKRVQKSLFGVNAIQGMDGSAHIHRKMLFLSLMTPPHQKRLAELMTEEWKAAVTRWEKADEVVLFEEAKEILCRVACYWAGVPLKETEVKERADDFIDMVDAFGAVGPRHWKGRRARPRAEEWIEVMIEDARAGLLKTTSGTALHEMAFHTQEDGSQLDSRMAAIELINVLRPIVAISYFLVFSALALHEHPKYKEWLRSGNSREREMFVQEVRRYYPFGPFLGALVKKDFVWNNCEFKKGTSVLLDLYGTNHDPRLWDHPDEFRPERFAEREENLFDMIPQGGGHAEKGHRCPGEGITIEVMKASLDFLVHQIEYDVPEQSLHYSLARMPSLPESGFVMSGIRRKS

Legend:
Type in all cases: biochemical
[1] = Fatty acid decarboxylation assay with purified Sm46-del29, GC
Protocol: FIG. 6: In vitro conversion of free fatty acids into α-olefins by a truncated variant of Sm46: Sm46-del29. Conversion percentages of the free fatty acid substrates (A) and the corresponding α-alkene products (B) are shown.
The fatty acid decarboxylation assays containing 1.0 μM Sm46-del29, 200 μM fatty acid substrate (from C8 to C20), 220 μM H2O2 in 200 μl of storage buffer were carried out at 28° C. for 2 h. Reactions were quenched by the addition of 20 μl of 10 M HCl. Heptadecanoic acid was added as internal standard and the mixture was extracted by 200 μl ethyl acetate. Following extraction, the organic phase was collected and analyzed by gas chromatography as described below.
The GC analytical method for hydrocarbon and fatty acid samples was adapted from Guan et al. (2011 J Chromatogr A 1218:8289-8293). The analyses were performed on an Agilent 7890B gas chromatograph equipped with a capillary column HP-INNOWAX (Agilent Technologies, Santa Clara, Calif., USA; cross-linked polyethylene glycerol, i.d. 0.25 μm film thickness, 30 m by 0.25 mm). The helium flow rate was set to 1 ml per minute. The oven temperature was controlled initially at 40° C. for 4 min, then increased at the rate of 10° C. per min to 250° C., and held for 5 min. The injecting temperature was set to 280° C. with the injection volume of 1 μl under splitless injection conditions. The response factors between fatty acids and alkenes were determined by analyzing known authentic fatty acids (C10-C20), 1-alkenes (C9-C19) and 1-heptadecanoic acid standards as described in Liu et al. (2014 Biotechnol. Biofuels 7:28).

[2] = Reaction of purified enzymes with C14 fatty acid, analysis of decarboxylation and hydroxylation products; settings: compared with Bs168 and Aa162; FIG. 7
Protocol: FIG. 7: In vitro production of α-olefins by Aa162, Bs168 and Sm46-del29. Recombinantly expressed and purified enzyme (0.2 μM) was used in an in vitro assay for α-olefin biosynthesis in the presence of C14 fatty acid substrate. The conversion percentages are shown for, from left to right, C14 free fatty acid substrate, C13 α-olefin, α-hydroxy C14 fatty acid, β-hydroxy C14 fatty acid.
Recombinantly expressed and purified Bs168 and Aa162 from Example 1 and Sm46-del29 of Example 2 were reacted with C14 fatty acid and the products of decarboxylation (C13 α-olefin) and hydroxylation (α-OH—O14 fatty acid and β-OH—C14 fatty acid) reactions were analyzed.

[3] = In vitro olefin biosynthesis assay with supernatant of E. coli lysates expressing the enzyme, GC/MS; settings: for fatty acid decarboxylase activity (α-olefin production): C12, C14 or C16 fatty acid substrate (1 mM), H2O2 500 μM
Protocol: FIG. 4: In vitro production of α-olefins by OleTJE, Bs168, Aa162 and Sm46. Genes encoding OleTJ, Bs168, Aa162 and Sm46 were recombinantly expressed in E. coli. The supernatant of the E. coli lysates was used in an in vitro assay for α-olefin biosynthesis in the presence of C12, C14 or C16 fatty acid substrate (1 mM) and H2O2 (500 μM). C11, C13 and C15 α-olefin production by the different enzymes is indicated as the area under the gas chromatographic (GC) peak.
E. coli BL21(DE3) cells (Novagen) carrying a recombinant plasmid or an empty PET28a plasmid (control) were cultured for several cycles to ensure best growth state at 37° C. in 10 mL LB medium supplemented with 50 μg/ml of kanamycin, followed by inoculation (1:100 ratio) into 50 mL fresh Terrific Broth medium containing 50 μg/ml of kanamycin, 1 mM thiamine, 10% glycerol and a rare salt solution (6750 mg/l FeCl3, 500 mg/l ZnCl2, 500 mg/l CoCl2, 500 mg/l Na2MoO4, 250 mg/l CaCl2, 465 mg/l CuSO4, and 125 mg/l H31303) at 37° C. Cells were grown at 37° C. for 3 to 4 h until the optical density at 600 nm (OD600) reached 0.6 to 0.8, at which 0.2 or 0.4 mM isopropyl-β-D-thiogalactopyranoside (IPTG) and 0.5 mM 5-aminolevulinic acid were added, followed by 18 h of cultivation at 16° C.
Then, the cell cultures were recovered by centrifugation (at 4° C.) and re-suspended in 1.5 mL 50 mM Tris buffer, pH 7.5, containing 0.1 M NaCl. The re-suspended cell cultures were disrupted by sonication and centrifuged at 13,000×g for 30 min (4° C.). The supernatant was collected and the pellet was re-suspended in 1.5 mL 50 mM Tris buffer, pH 7.5, containing 0.1 M NaCl for further analysis. An SDS gel was run to check the expression of the genes using 15 μL of supernatant or pellet solution mixed with 5 μL of 4× loading buffer (FIG. 3).
In vitro olefin biosynthesis was evaluated by adding to the supernatant a fatty acid substrate in DMSO to a final concentration of 0.2 mM (1:100 dilution) or 1 mM (1:10 dilution), and 500 μM H2O2. The reaction mixture was incubated at 28° C. for 2-3 h, or stopped using 50 μL of 10 M HCl at t=0, 15, 30, 60 and 120 min for a dynamic test. Then, C16 fatty acid was added at a final concentration of 0.2 mM (1:100 dilution) as an internal standard. 300 μL reaction mixture of each reaction condition was extracted with equal volume of ethyl acetate, and the organic phase was analyzed for hydrocarbons by gas chromatography/mass spectrometry (GC/MS). In the meanwhile, undecene of different concentrations (0, 0.05 mM, 0.1 mM, 0.2 mM and 0.5 mM) were tested to produce a standard curve.

[4] = C12, C14 or C16 fatty acid substrate, FIG. 4

Molecule | fatty acid decarboxylase activity (α-olefin production) ([3]; FIG. 4) | substrate preference [3, 4] | also measured
B1 | – | – | decarboxylase activity ([1]; 1.0 μM enzyme, 200 μM fatty acid, 220 μM H2O2, 28° C., 2 h, FIG. 6): had decarboxylase activity; decarboxylation of C10 free fatty acid ([1]; C9 α-olefin not detected due to volatility): able to decarboxylate C10 free fatty acid; substrate preference for α-olefin production ([1]; among tested fatty acid substrates C8 to C20, FIG. 6): substrate preference for C12 free fatty acid; formation of hydroxy fatty acids [2]: formed less hydroxy fatty acids
B2 | fatty acid decarboxylase activity | preference for C12 fatty acid substrate | –
B3 | fatty acid decarboxylase activity | – | substrate preference ([3]; later experiments, data not shown): substrate preference for C12 fatty acid substrate
B4 | fatty acid decarboxylase activity | – | –
B5 | fatty acid decarboxylase activity | preference for C12 fatty acid substrate | –
